According to patent US20100144607 (published 2010):
Bridge positions count the residues as written; N and C are the ends. Ends that are not written are not given here.

Target: trypsin
Assay: other, trypsin inhibition

Row | Binder | Ki [nM]
1 | VQQCSEIAGAKPC (disulfide 4-13) [Seq04] | 42
2 | IPRCRAMPGVKMC (disulfide 4-13) [Seq06] | 24.2
3 | IPRCRKMPGVKMC (disulfide 4-13; not fully specified) [Seq07] | 20
4 | IPRCRKMPGVKMC (disulfide 4-13; not fully specified) [Seq09] | 21.8
5 | IPRCRKMPGVKMC (disulfide 4-13) [Seq01] | 22.5
6 | VEQCTIIGDEKDC (disulfide 4-13) [Seq02] | 24
7 | IPRCRKMPGVKMC (disulfide 4-13; not fully specified) [Seq08] | 24.8
8 | LHRCDKIADAKPC (disulfide 4-13) [Seq05] | 44
9 | VEQCTIIGDAKDC (disulfide 4-13) [Seq03] | 63.6
